The data set “crystal structure” deals with the molecule itself. Put plainly: crystal structure.
The data set “SEC” concerns the molecule itself. The data set is described as follows: SEC.

Positions count from the first letter of the chain named. Names and notes keep the numbering of the source.

As a reminder, the stoichiometry N is the number of molecules, sites or subunits per partner or assembly.

B1: Sf6 terminase small subunit gp1 R48A mutant (natural protein)
chain: MATEPKAGRPSDYMPEVADDICSLLSSGESLLKVCKRPGMPDKSTVFAWLAKHEDFRDKYAKATEARADSIFEEIFEIADNAIPDAAEVAKARLRVDTRKWALARMNPRKYGDKVTNELVGKDGGAIQIETSPMSTLFGK
In the case of B1, the binding result in the data set “crystal structure” is reported as “binds”.

B2: Sf6 terminase small subunit gp1 E73A mutant (natural protein, Shigella phage Sf6)
chain: B1 chain with A48R, E73A
B2: the “stoichiometry N” value in the data set “SEC” worked out at 8.

B3: Sf6 terminase small subunit gp1 K59E mutant (natural protein)
chain: B1 chain with A48R, K59E
On to B3, for which, in “crystal structure”, the binding result was “binds”.

B4: Sf6 terminase small subunit gp1 D19R mutant (natural protein, Shigella phage Sf6, UniProt Q716H4 1-140, looked up)
chain: B1 chain with D19R, A48R
Turning to B4, the binding result in “crystal structure” was “binds”.
